Measurements from patent US9957297B2, “Template-fixed peptidomimetics as inhibitors of FPR1” (POLYPHOR AG, priority 2011, dated 2018).
*1 amine or outer side, *2 acyl side, *3 side chain or, on linkers, in order; H or OH if unused. Where a SMILES comes first, the peptide text is derived from it. Bridges are numbered along the chain shown (N, C = ends). [ ]: non-standard residue; d: D form. Pro(trans-4-NH2) = O=C([C@@H]1C[C@@H](N[*:3])CN1[*:1])[*:2]; Trp(5-OH) = N[C@@H](Cc1c[nH]c2ccc(O)cc12)C(=O)O; Oic = O=C(O)[C@@H]1C[C@@H]2CCCC[C@@H]2N1; Pro(4S-NH2) = N[C@@H]1CN[C@H](C(=O)O)C1; d(cisHyp) = O=C(O)[C@H]1C[C@@H](O)CN1; Hyp = O=C(O)[C@@H]1C[C@@H](O)CN1; Tic = O=C(O)[C@@H]1Cc2ccccc2CN1; Pip = O=C(O)[C@@H]1CCCCN1; Dab = NCC[C@H](N)C(=O)O; Dap = NC[C@H](N)C(=O)O

T1: FPR1 (Homo sapiens, UniProt P21462)
T1 construct: host or cells: CHO (PathHunter CHO-FPR1 β-arrestin cells)
T1 sequence (P21462 1-350): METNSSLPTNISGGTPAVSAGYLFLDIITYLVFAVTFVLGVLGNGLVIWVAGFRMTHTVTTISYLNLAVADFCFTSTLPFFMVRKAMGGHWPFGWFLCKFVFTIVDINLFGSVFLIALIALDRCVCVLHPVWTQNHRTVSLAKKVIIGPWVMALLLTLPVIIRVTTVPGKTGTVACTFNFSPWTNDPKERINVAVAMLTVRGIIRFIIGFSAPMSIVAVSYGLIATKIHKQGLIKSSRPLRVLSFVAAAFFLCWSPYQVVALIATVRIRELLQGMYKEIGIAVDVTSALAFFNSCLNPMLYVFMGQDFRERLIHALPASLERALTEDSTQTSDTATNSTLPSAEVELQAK

T2: Formyl-Peptide Receptor 1 (UniProt P21462 1-350, limits assumed)
T2 sequence (looked up): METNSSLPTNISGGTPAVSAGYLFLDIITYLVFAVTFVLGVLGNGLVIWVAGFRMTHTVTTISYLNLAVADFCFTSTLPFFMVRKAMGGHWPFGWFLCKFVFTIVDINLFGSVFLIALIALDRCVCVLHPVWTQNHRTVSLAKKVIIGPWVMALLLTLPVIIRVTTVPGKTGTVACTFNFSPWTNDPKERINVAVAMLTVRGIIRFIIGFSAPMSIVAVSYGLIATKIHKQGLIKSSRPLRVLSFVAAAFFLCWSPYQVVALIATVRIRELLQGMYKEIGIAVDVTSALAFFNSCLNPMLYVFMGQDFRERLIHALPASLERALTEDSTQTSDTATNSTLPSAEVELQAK


The molecules below were run against T1, FPR1 (assay: FPR1 β-arrestin recruitment assay (PathHunter CHO-FPR1, antagonistic mode)). Conditions: CHO FPR1 β-arrestin cells; antagonistic assay vs reference agonist fMLF at its EC80; 60 min preincubation.
Format: cell-based
Method: 2.2 FPR1 β-Arrestin Recruitment Assay
The PathHunter CHO—FPR1 (DiscoverX) assay was performed according to the manufacturer's protocol. In brief, CHO FPR1 β-arrestin cells were seeded at a density of 9000 cells per well in 20 μl of Ham's F12 medium (Invitrogen) in black 384-well culture plates and incubated overnight at 37° C. in a humidified atmosphere with 5% CO2. The next day, serial dilutions of the β-hairpin peptidomimetics of this invention have been prepared in DMSO and subsequently diluted in HBSS buffer supplemented with 20 mM Hepes and 0.1% BSA.
For antagonistic assay, 5 μl of compound solution or buffer was added to the cells with a final DMSO concentration of 0.5% (v/v). The plate was incubated for 60 min at 37° C. with 5% CO2 before addition of […] of the reference agonist fMLF peptide (Sigma-Aldrich) at its EC80 concentration. After 90 min of incubation at 37° C. with 5% CO2, 15 μl of beta-Glo detection reagent (Promega) were added. Reaction was developed for 20 min at room temperature and chemiluminescence was measured with a Victor2V (Perkin Elmer) luminescence reader.

IC50 | Molecule
189 ± 65 nM | CC[C@H](C)[C@@H]1NC(=O)[C@H]([C@@H](C)O)NC(=O)[C@H](Cc2c[nH]c3ccccc23)NC(=O)[C@H]2CCCN2C(=O)CNC(=O)[C@H](Cc2c[nH]cn2)NC(=O)[C@@H]2CSSC[C@H](NC1=O)C(=O)N[C@@H](Cc1ccc(O)cc1)C(=O)N[C@@H](CCC(=O)O)C(=O)N[C@@H](CCCCN)C(=O)N1CCC[C@@H]1C(=O)N[C@@H](CCN)C(=O)N[C@@H](Cc1ccc(O)cc1)C(=O)N[C@@H](Cc1c[nH]cn1)C(=O)N[C@@H](CCCCN)C(=O)N2 [Ex. 89, cyclo(-Tyr-His-Lys-Cys-His-Gly-^DPro-Trp-Thr-Ile-Cys-Tyr-Glu-Lys-^DPro-Dab-)] (cyclo(YHKCHG[dP]WTICYEK[dP][Dab]); disulfide 4-11)
126 ± 53 nM | CC[C@H](C)[C@@H]1NC(=O)[C@H]([C@@H](C)O)NC(=O)[C@H](Cc2c[nH]c3ccccc23)NC(=O)[C@H]2CCCN2C(=O)CNC(=O)[C@H](Cc2c[nH]c3ccccc23)NC(=O)[C@@H]2CSSC[C@H](NC1=O)C(=O)N[C@@H](Cc1ccc(O)cc1)C(=O)N[C@@H](CCC(=O)O)C(=O)N[C@@H](CCCCN)C(=O)N[C@H](CCCCN)C(=O)N1CCC[C@H]1C(=O)N[C@@H](Cc1ccc(O)cc1)C(=O)N[C@@H](Cc1c[nH]cn1)C(=O)N[C@@H](CCCCN)C(=O)N2 [compound 43, cyclo(-Tyr-His-Lys-Cys-Trp-Gly-^DPro-Trp-Thr-Ile-Cys-Tyr-Glu-Lys-^DLys-Pro-)] (cyclo(YHKCWG[dP]WTICYEK[dK]P); disulfide 4-11)

The molecules below were run against T2, Formyl-Peptide Receptor 1 (assay: cell-based or functional assay). Conditions: not given.

Molecule | β-Arrestin IC50
cyclo(YH[Dab]CWG[dP]WTICYEK[dP]P) (disulfide 4-11) [cyclo(-Tyr-His-Dab-Cys-Trp-Gly-^DPro-Trp-Thr-Ile-Cys-Tyr-Glu-Lys-^DPro-Pro-)] | 93 nM
cyclo(YH[Dap]CHG[dP]WTICYEK[dP]P) (disulfide 4-11) [cyclo(-Tyr-His-Dap-Cys-His-Gly-^DPro-Trp-Thr-Ile-Cys-Tyr-Glu-Lys-^DPro-Pro-)] | 271 nM
cyclo(YH[Dab]CHG[dP]WTICYEK[dP]P) (disulfide 4-11) [cyclo(-Tyr-His-Dab-Cys-His-Gly-^DPro-Trp-Thr-Ile-Cys-Tyr-Glu-Lys-^DPro-Pro-)] | 290 nM
cyclo(YHACWG[dP]WTICYQK[dP]A) (disulfide 4-11; SMILES CC[C@H](C)[C@@H]1NC(=O)[C@H]([C@@H](C)O)NC(=O)[C@H](Cc2c[nH]c3ccccc23)NC(=O)[C@H]2CCCN2C(=O)CNC(=O)[C@H](Cc2c[nH]c3ccccc23)NC(=O)[C@@H]2CSSC[C@H](NC1=O)C(=O)N[C@@H](Cc1ccc(O)cc1)C(=O)N[C@@H](CCC(N)=O)C(=O)N[C@@H](CCCCN)C(=O)N1CCC[C@@H]1C(=O)N[C@@H](C)C(=O)N[C@@H](Cc1ccc(O)cc1)C(=O)N[C@@H](Cc1c[nH]cn1)C(=O)N[C@@H](C)C(=O)N2) [cyclo(-Tyr-His-Ala-Cys-Trp-Gly-^DPro-Trp-Thr-Ile-Cys-Tyr-Gln-Lys-^DPro-Ala-)] | 188 nM
cyclo(YHKCHG[d(cisHyp)]WTICYEK[dP]P) (disulfide 4-11) [cyclo(-Tyr-His-Lys-Cys-His-Gly-^DPro((4R)OH)-Trp-Thr-Ile-Cys-Tyr-Glu-Lys-^DPro-Pro-)] | 485 nM
cyclo(YHACHG[dP]WTICYQK[dP]W) (disulfide 4-11; SMILES CC[C@H](C)[C@@H]1NC(=O)[C@H]([C@@H](C)O)NC(=O)[C@H](Cc2c[nH]c3ccccc23)NC(=O)[C@H]2CCCN2C(=O)CNC(=O)[C@H](Cc2c[nH]cn2)NC(=O)[C@@H]2CSSC[C@H](NC1=O)C(=O)N[C@@H](Cc1ccc(O)cc1)C(=O)N[C@@H](CCC(N)=O)C(=O)N[C@@H](CCCCN)C(=O)N1CCC[C@@H]1C(=O)N[C@@H](Cc1c[nH]c3ccccc13)C(=O)N[C@@H](Cc1ccc(O)cc1)C(=O)N[C@@H](Cc1c[nH]cn1)C(=O)N[C@@H](C)C(=O)N2) [cyclo(-Tyr-His-Ala-Cys-His-Gly-^DPro-Trp-Thr-Ile-Cys-Tyr-Gln-Lys-^DPro-Trp-)] | 147 nM
cyclo(YHICHG[dP]WTICYEK[dP]P) (disulfide 4-11; SMILES CC[C@H](C)[C@@H]1NC(=O)[C@H](Cc2c[nH]cn2)NC(=O)[C@H](Cc2ccc(O)cc2)NC(=O)[C@@H]2CCCN2C(=O)[C@H]2CCCN2C(=O)[C@H](CCCCN)NC(=O)[C@H](CCC(=O)O)NC(=O)[C@H](Cc2ccc(O)cc2)NC(=O)[C@@H]2CSSC[C@H](NC1=O)C(=O)N[C@@H](Cc1c[nH]cn1)C(=O)NCC(=O)N1CCC[C@@H]1C(=O)N[C@@H](Cc1c[nH]c3ccccc13)C(=O)N[C@@H]([C@@H](C)O)C(=O)N[C@@H]([C@@H](C)CC)C(=O)N2) [cyclo(-Tyr-His-Ile-Cys-His-Gly-^DPro-Trp-Thr-Ile-Cys-Tyr-Glu-Lys-^DPro-Pro-)] | 50 nM

The next lines start with the values.

β-Arrestin IC50 | Molecule
530 nM | cyclo(YHKCHG[dP]WTICYEK[dP][Pro(4S-NH2)]) (disulfide 4-11) [cyclo(-Tyr-His-Lys-Cys-His-Gly-^DPro-Trp-Thr-Ile-Cys-Tyr-Glu-Lys-^DPro-Pro((4S)NH2)-)]
109 nM | cyclo(YHKCHG[dP]WTICYEK[dP]K) (disulfide 4-11; SMILES CC[C@H](C)[C@@H]1NC(=O)[C@H]([C@@H](C)O)NC(=O)[C@H](Cc2c[nH]c3ccccc23)NC(=O)[C@H]2CCCN2C(=O)CNC(=O)[C@H](Cc2c[nH]cn2)NC(=O)[C@@H]2CSSC[C@H](NC1=O)C(=O)N[C@@H](Cc1ccc(O)cc1)C(=O)N[C@@H](CCC(=O)O)C(=O)N[C@@H](CCCCN)C(=O)N1CCC[C@@H]1C(=O)N[C@@H](CCCCN)C(=O)N[C@@H](Cc1ccc(O)cc1)C(=O)N[C@@H](Cc1c[nH]cn1)C(=O)N[C@@H](CCCCN)C(=O)N2) [cyclo(-Tyr-His-Lys-Cys-His-Gly-^DPro-Trp-Thr-Ile-Cys-Tyr-Glu-Lys-^DPro-Lys-)]
161 nM | cyclo(YHKCHG[dP]WTICYEK[dP][Pip]) (disulfide 4-11) [cyclo(-Tyr-His-Lys-Cys-His-Gly-^DPro-Trp-Thr-Ile-Cys-Tyr-Glu-Lys-^DPro-Pip-)]
13 nM | cyclo(YHKC[Trp(5-OH)]G[dP]WTICYEK[dP]P) (disulfide 4-11) [cyclo(-Tyr-His-Lys-Cys-Trp(5OH)-Gly-^DPro-Trp-Thr-Ile-Cys-Tyr-Glu-Lys-^DPro-Pro-)]
189 nM | cyclo(YHKCHG[dP]WTICYEK[dP][Dab]) (disulfide 4-11; SMILES CC[C@H](C)[C@@H]1NC(=O)[C@H]([C@@H](C)O)NC(=O)[C@H](Cc2c[nH]c3ccccc23)NC(=O)[C@H]2CCCN2C(=O)CNC(=O)[C@H](Cc2c[nH]cn2)NC(=O)[C@@H]2CSSC[C@H](NC1=O)C(=O)N[C@@H](Cc1ccc(O)cc1)C(=O)N[C@@H](CCC(=O)O)C(=O)N[C@@H](CCCCN)C(=O)N1CCC[C@@H]1C(=O)N[C@@H](CCN)C(=O)N[C@@H](Cc1ccc(O)cc1)C(=O)N[C@@H](Cc1c[nH]cn1)C(=O)N[C@@H](CCCCN)C(=O)N2) [cyclo(-Tyr-His-Lys-Cys-His-Gly-^DPro-Trp-Thr-Ile-Cys-Tyr-Glu-Lys-^DPro-Dab-)]
376 nM | cyclo(YHKCHG[dP]WTICYEK[dP][Hyp]) (disulfide 4-11) [cyclo(-Tyr-His-Lys-Cys-His-Gly-^DPro-Trp-Thr-Ile-Cys-Tyr-Glu-Lys-^DPro-Pro((4R)OH)-)]
54 nM | cyclo(YHKCWG[dP]WTICYEK[dP]K) (disulfide 4-11; SMILES CC[C@H](C)[C@@H]1NC(=O)[C@H]([C@@H](C)O)NC(=O)[C@H](Cc2c[nH]c3ccccc23)NC(=O)[C@H]2CCCN2C(=O)CNC(=O)[C@H](Cc2c[nH]c3ccccc23)NC(=O)[C@@H]2CSSC[C@H](NC1=O)C(=O)N[C@@H](Cc1ccc(O)cc1)C(=O)N[C@@H](CCC(=O)O)C(=O)N[C@@H](CCCCN)C(=O)N1CCC[C@@H]1C(=O)N[C@@H](CCCCN)C(=O)N[C@@H](Cc1ccc(O)cc1)C(=O)N[C@@H](Cc1c[nH]cn1)C(=O)N[C@@H](CCCCN)C(=O)N2) [cyclo(-Tyr-His-Lys-Cys-Trp-Gly-^DPro-Trp-Thr-Ile-Cys-Tyr-Glu-Lys-^DPro-Lys-)]
115 nM | cyclo(YHKCHG[dP]WTICYEK[dP][Tic]) (disulfide 4-11) [cyclo(-Tyr-His-Lys-Cys-His-Gly-^DPro-Trp-Thr-Ile-Cys-Tyr-Glu-Lys-^DPro-Tic-)]
82 nM | cyclo(YHKCHG[dP]WTICYEK[dP][Pro(trans-4-NH2)]) (disulfide 4-11; SMILES CC[C@H](C)[C@@H]1NC(=O)[C@H]([C@@H](C)O)NC(=O)[C@H](Cc2c[nH]c3ccccc23)NC(=O)[C@H]2CCCN2C(=O)CNC(=O)[C@H](Cc2c[nH]cn2)NC(=O)[C@@H]2CSSC[C@H](NC1=O)C(=O)N[C@@H](Cc1ccc(O)cc1)C(=O)N[C@@H](CCC(=O)O)C(=O)N[C@@H](CCCCN)C(=O)N1CCC[C@@H]1C(=O)N1C[C@H](N)C[C@H]1C(=O)N[C@@H](Cc1ccc(O)cc1)C(=O)N[C@@H](Cc1c[nH]cn1)C(=O)N[C@@H](CCCCN)C(=O)N2) [cyclo(-Tyr-His-Lys-Cys-His-Gly-^DPro-Trp-Thr-Ile-Cys-Tyr-Glu-Lys-^DPro-Pro((4R)NH2)-)]
267 nM | cyclo(YHKCHG[dP]WTICYEK[dP][Oic]) (disulfide 4-11) [cyclo(-Tyr-His-Lys-Cys-His-Gly-^DPro-Trp-Thr-Ile-Cys-Tyr-Glu-Lys-^DPro-Oic-)]
